In paper PMC6999076, “Engineered disulfide bonds improve thermostability and activity of L‐isoleucine hydroxylase for efficient 4‐HIL production in Bacillus subtilis 168” (Engineering in Life Sciences, 2019):

Columns and labels:
[1] = substrate: CC[C@H](C)[C@H](N)C(=O)O; experiment: DNFB precolumn derivatization HPLC of 4-HIL; Michaelis-Menten fit; format: biochemical, Bacillus cereus; conditions: 20 mM alpha-KG, assay: 1 mM FeSO4, 5 mM ascorbic acid, PBS pH 7.0, 30°C
Source text: (§1) DNFB precolumn derivatization HPLC of 4-HIL; Michaelis-Menten fit on L-isoleucine hydroxylase (IDO)

[2] = substrate: O=C(O)CCC(=O)C(=O)O; experiment: as above; format: biochemical, Bacillus cereus; conditions: 20 mM L-Ile, assay: 1 mM FeSO4, 5 mM ascorbic acid, PBS pH 7.0, 30°C
Source text: as §1

B1: L-isoleucine hydroxylase (IDO) (Bacillus cereus ATCC 14579) (protein)
chain: MTFVLSKMNGFSIEEKVHEFESKGFLEISNEIFLQEEENHRLLTQAQLDYYNLEDDAYGECRARSYSRYIKYVDSPDYILDNSNDYFQSKEYNYDDGGKVRQFNSINDSFLCNPLIQNIVRFDTEFAFKTNIIDTSKDLIIGLHQVRYKATKERPSFSSPIWLHKDDEPVVFLHLMNLSNTAIGGDNLIANSPREINQFISLKEPLETLVFGQKVFHAVTPLGTECSTEAFRDILLVTFSYKETK
notes: full-length, 6xHis tag (downstream primer, C-terminal) kept; free cysteines C61, C112, C226; GenBank AE016877.1 is a whole-genome record (B. cereus ATCC 14579), not a gene record
Q: How did the Km [1] turn out when B1 was run?
A: 260 µM

Q: What about the kcat [1] of the same protein?
A: 0.84 s⁻¹

Q: And the kcat/Km [1]?
A: 3180 M⁻¹ s⁻¹

Q: What about the Km [2] of the same protein?
A: 3340 µM

Q: And the kcat [2]?
A: 0.32 s⁻¹

Q: And the kcat/Km [2]?
A: 90 M⁻¹ s⁻¹
